The series is classed as physicochemical. As to the method:
Cell-free reactions were then performed. In particular, preparative reactions are carried out using the Invitrogen's Expressway Maxi kit or Roche's RTS 500 ProteoMaster Kit. Basically, lyophilized reaction components (Lysate, Reaction Mix, Amino Acid Mix, Methionine) are dissolved in Reconstitution Buffer and combined as specified by the manufacturer. For co-expression a total of 5 μg of each plasmid DNA (bOp and Δ49A1) was added to the lysate mixture with added DMPC vesicles and retinal cofactor (see below). The reactions were incubated at 30° C. or 37° C. for 4-24 h. For membrane protein survey studies co-expression of 0.2 ug Δ49A1 DNA and 1 ug of each membrane protein DNA was added to the cell-free mixture where [^35S]Met (135 mCi/mmol final) (Perkin Elmer, Waltham, Mass.) was added in place of methionine. The soluble fraction was obtained by centrifuging the reactions at 14000×g for 5 min. Autoradiograms were generated by overnight exposures to proteins separated by SDS-PAGE (data not shown). Percent solubility was determined using ImageJ software (U. S. National Institutes of Health) to quantize autoradiogram bands for the soluble fractions in the presence and absence of apolipoprotein Δ49A1.
All were expressed in the presence of 30-50 μM all-trans-retinal and 2 mg/mL DMPC. […]
The NLPs were also analyzed by SDS Page. […]

From US11300572B2, “Methods and systems for producing nanolipoprotein particles” (LAWRENCE LIVERMORE NATIONAL SECURITY, LLC, priority 2007, dated 2022) come the findings set out here.

B1: bR: bacteriorhodopsin from H. salinarium, seven transmembrane protein, cell-free expressed from bOp with all-trans retinal (protein, UniProt P02945 14-262, looked up)
Bacteriorhodopsin: QAQITGRPEWIWLALGTALMGLGTLYFLVKGMGVSDPDAKKFYAITTLVPAIAFTMYLSMLLGYGLTMVPFGGEQNPIYWARYADWLFTTPLLLLDLALLVDADQGTILALVGADGIMIGTGLVGALTKVYSYRFVWWAISTAAMLYILYVLFFGFTSKAESMRPEVASTFKVLRNVTVVLWSAYPVVWLIGSEGAGIVPLNIETLLFMVLDVSAKVGFGLILLRSRAIFGEAEAPEPSAGDGAAATSD
modifications: all-trans retinal chromophore
As for B1, the “solubility of bR” value is recorded as “insoluble”.
